Laboratory results reported in PMC11025565 (Journal of molecular biology, 2021).
Numbering of substitutions follows the chain as printed. Numbers in names are those of the source.

T1: integrin β3(P685-F727) transmembrane peptide with C687S and I693A (human, UniProt P05106 711-753, C687S | I693A)
T1 chain (looked up): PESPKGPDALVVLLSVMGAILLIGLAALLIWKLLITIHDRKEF

T2: integrin β3(P685-F727) transmembrane peptide with C687S (human, UniProt P05106 711-753, C687S)
T2 chain (looked up): T1 chain (looked up) with A9I

B1: integrin αIIb(A958-P998) transmembrane peptide (peptide)
chain: not shown
B2: integrin αIIb(A958-P998) transmembrane peptide with G972S (peptide)
chain: not shown
B3: integrin αIIb(A958-P998) transmembrane peptide with G972A (peptide)
chain: not shown

Target: T1, integrin β3(P685-F727) transmembrane …
Experiment: ITC

KXY	dH	Binder
9500 ± 500	-13.9 ± 0.3 kcal/mol	B1
18600 ± 800	-16 ± 0.2 kcal/mol	ALEERAIPIWVVLVGVLGGLLLLTILVLAMWKVGFFKRNRP (peptide, UniProt P08514 989-1029, looked up) [integrin αIIb(A958-P998) transmembrane peptide with W968V]

Target: T2, integrin β3(P685-F727) transmembrane …
Experiment: ITC

KXY	dH	Binder
13200 ± 600	-14.3 ± 0.2 kcal/mol	ALEERAIPIWVVLVGVLGGLLLLTILVLAMWKVGFFKRNRP (peptide, UniProt P08514 989-1029, looked up) [integrin αIIb(A958-P998) transmembrane peptide with W968V]
1300 ± 50	-12.5 ± 0.3 kcal/mol	ALEERAIPIWVVLVSVLGGLLLLTILVLAMWKVGFFKRNRP (peptide, UniProt P08514 989-1029, looked up) [integrin αIIb(A958-P998) transmembrane peptide with W968V/G972S]
14000 ± 1000	-14.1 ± 0.3 kcal/mol	ALEERAIPIWAVLVGVLGGLLLLTILVLAMWKVGFFKRNRP (peptide, UniProt P08514 989-1029, looked up) [integrin αIIb(A958-P998) transmembrane peptide with W968A]
1570 ± 50	-14.4 ± 0.2 kcal/mol	ALEERAIPIWVVLVAVLGGLLLLTILVLAMWKVGFFKRNRP (peptide, UniProt P08514 989-1029, looked up) [integrin αIIb(A958-P998) transmembrane peptide with W968V/G972A]
810 ± 20	-14.8 ± 0.2 kcal/mol	B2
9700 ± 300	-14.6 ± 0.1 kcal/mol	ALEERAIAIWVVLVGVLGGLLLLTILVLAMWKVGFFKRNRP (peptide, UniProt P08514 989-1029, looked up) [integrin αIIb(A958-P998) transmembrane peptide with P965A/W968V]
1080 ± 30	-14.2 ± 0.2 kcal/mol	B3
